Experiment [1] concerns the target Rad52 (295-408) (S. cerevisiae). The experiment is described as follows: SEC-SAXS.
The target of experiment [2] is Rad51 (in yeast cells) (S. cerevisiae) (UniProt P25454). The experiment is described as follows: co-IP.
Experiment [3] addresses T1, Rad51 (full length, recombinant) (S. cerevisiae), P25454.
T1 chain: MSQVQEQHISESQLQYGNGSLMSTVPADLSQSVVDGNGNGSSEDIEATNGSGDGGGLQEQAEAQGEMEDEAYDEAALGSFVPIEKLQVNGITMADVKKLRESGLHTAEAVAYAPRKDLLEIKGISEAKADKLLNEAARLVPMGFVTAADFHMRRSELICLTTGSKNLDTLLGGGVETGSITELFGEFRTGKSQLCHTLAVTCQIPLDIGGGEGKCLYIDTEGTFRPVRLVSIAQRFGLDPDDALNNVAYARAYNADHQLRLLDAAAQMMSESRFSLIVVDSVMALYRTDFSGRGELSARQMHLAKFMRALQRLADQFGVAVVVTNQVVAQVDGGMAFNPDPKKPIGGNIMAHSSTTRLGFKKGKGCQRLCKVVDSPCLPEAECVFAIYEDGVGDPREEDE
Description: SEC-SAXS. The following applies: remark: other sources report otherwise.

As to “Rad51 (full length, recombinant) (from UniProt P25454 1-400) (natural protein)”, the stoichiometry N (in general, the number of molecules, sites or subunits per partner or assembly) in experiment [1] was 1. Turning to Rad52-K340E-FLAG (natural protein), the loss of interaction (%) against WT Rad52 in experiment [2] was determined as 30%. The same measure, in the same setting: the value for Rad52-T349A-FLAG (natural protein) was 85%.

B1: Rad51 (full length, recombinant), P25454 1-400 (natural protein)
chain: MSQVQEQHISESQLQYGNGSLMSTVPADLSQSVVDGNGNGSSEDIEATNGSGDGGGLQEQAEAQGEMEDEAYDEAALGSFVPIEKLQVNGITMADVKKLRESGLHTAEAVAYAPRKDLLEIKGISEAKADKLLNEAARLVPMGFVTAADFHMRRSELICLTTGSKNLDTLLGGGVETGSITELFGEFRTGKSQLCHTLAVTCQIPLDIGGGEGKCLYIDTEGTFRPVRLVSIAQRFGLDPDDALNNVAYARAYNADHQLRLLDAAAQMMSESRFSLIVVDSVMALYRTDFSGRGELSARQMHLAKFMRALQRLADQFGVAVVVTNQVVAQVDGGMAFNPDPKKPIGGNIMAHSSTTRLGFKKGKGCQRLCKVVDSPCLPEAECVFAIYEDGVGDPREEDE
As for B1, the stoichiometry N in experiment [3] is 4.

The values are drawn from publication doi:10.1101/2024.12.05.627070.
